Measured values from patent CN113735970A (INST MILITARY MEDICINE ACADEMY MILITARY SCIENCES PLA, dated 2021).

Experiments:
SARS-CoV-2 Delta株S-ECD蛋白 = SARS-CoV-2 Delta株S-ECD蛋白 (SARS-CoV-2 Delta株 (B.1.617.2), UniProt P0DTC2 14-1213)
SARS-CoV-2 Alpha株S-ECD蛋白 = SARS-CoV-2 Alpha株S-ECD蛋白 (SARS-CoV-2 Alpha株 (B.1.1.7), UniProt P0DTC2 14-1213)
SARS-CoV-2 Beta株S-ECD蛋白 = SARS-CoV-2 Beta株S-ECD蛋白 (SARS-CoV-2 Beta株 (B.1.351), UniProt P0DTC2 14-1213)
SARS-CoV-2 Gamma株S-ECD蛋白 = SARS-CoV-2 Gamma株S-ECD蛋白 (SARS-CoV-2 Gamma株 (P.1), UniProt P0DTC2 14-1213)

B1: 抗SARS-CoV-2全人源单克隆抗体ZWC6 (antibody, human IgG1, kappa, V domains shown)
VH: EVQLVESGGGVVQPGTSLRLSCAASGFSFSHYVMYWVRQAPGKGLDWVAIISFDGSSQYYADSVKGRFTISRDNSKDTLYLQMHSLRPEDTAVYYCAIHGGTYYYDKNILAWGQGTLVTVSS
VL: AIRMTQSPPTLSLSPGERATLSCRASQSVTNYLVWYQQKPGQAPRLLIYDTFNRATGIPARFSGSGSGTDFTLTISSLEPEDFAVYYCQQRSNWPPTFGQGTKVDIKR
- Kd (SARS-CoV-2 Delta株S-ECD蛋白): 4.21 nM
- koff (SARS-CoV-2 Delta株S-ECD蛋白): 0.000305 s⁻¹
- kon (SARS-CoV-2 Delta株S-ECD蛋白): 72400 M⁻¹ s⁻¹
- Kd (SARS-CoV-2 Alpha株S-ECD蛋白): 0.938 nM
- koff (SARS-CoV-2 Alpha株S-ECD蛋白): 0.000164 s⁻¹
- kon (SARS-CoV-2 Alpha株S-ECD蛋白): 175000 M⁻¹ s⁻¹
- Kd (SARS-CoV-2 Beta株S-ECD蛋白): 0.658 nM
- koff (SARS-CoV-2 Beta株S-ECD蛋白): 0.000121 s⁻¹
- kon (SARS-CoV-2 Beta株S-ECD蛋白): 184000 M⁻¹ s⁻¹
- Kd (SARS-CoV-2 Gamma株S-ECD蛋白): 1.2 nM
- koff (SARS-CoV-2 Gamma株S-ECD蛋白): 0.000182 s⁻¹
- kon (SARS-CoV-2 Gamma株S-ECD蛋白): 151000 M⁻¹ s⁻¹
